Results on ten molecules are retold here after patent US20160321394A1 (ACADEMIA SINICA, published 2016).

Where no end group is shown, it is not given here.

B1: L-peptide (peptide)
peptide: RLLDTNRPLLPY
notes: synthetic 12-mer, lead peptide; also called positive control
B2: PA-6 (peptide)
peptide: RLLDTNRPHLPY
B3: PA-5 (peptide)
peptide: RLLDTNRPQLPY
B4: P-11 (peptide)
peptide: RLLDTNRPLLGY
B5: PA-1 (peptide)
peptide: RLLDTNRPWLPY
B6: PA-4 (peptide)
peptide: RLLDTNRPNLPY
B7: P-14 (peptide)
peptide: RLLDTNRPLLLY
B8: PB-1 (peptide)
peptide: RLLDTNRPFLWY
B9: PB-3 (peptide)
peptide: RLLDTNRPLLPY-NH2
B10: PB-2 (peptide)
peptide: RLLDTNRPYLWY

T1 sequence (P11021 19-654 limits assumed): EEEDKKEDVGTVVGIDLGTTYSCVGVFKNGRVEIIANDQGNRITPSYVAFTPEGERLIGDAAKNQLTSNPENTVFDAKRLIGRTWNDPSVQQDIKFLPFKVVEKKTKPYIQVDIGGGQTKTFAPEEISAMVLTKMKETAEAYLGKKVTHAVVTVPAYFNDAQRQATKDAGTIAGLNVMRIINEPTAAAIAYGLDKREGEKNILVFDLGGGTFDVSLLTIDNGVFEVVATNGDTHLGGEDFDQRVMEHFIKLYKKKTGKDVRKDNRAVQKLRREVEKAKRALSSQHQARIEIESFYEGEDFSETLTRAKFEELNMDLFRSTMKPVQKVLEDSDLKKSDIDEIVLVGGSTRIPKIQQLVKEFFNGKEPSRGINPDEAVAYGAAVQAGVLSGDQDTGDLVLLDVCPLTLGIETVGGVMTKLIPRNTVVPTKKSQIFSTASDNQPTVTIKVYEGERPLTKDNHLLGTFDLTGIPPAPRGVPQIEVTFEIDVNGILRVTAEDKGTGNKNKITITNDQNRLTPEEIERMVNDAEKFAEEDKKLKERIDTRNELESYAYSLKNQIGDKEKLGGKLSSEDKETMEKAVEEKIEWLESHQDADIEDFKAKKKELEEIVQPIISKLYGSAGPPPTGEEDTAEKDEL

The first assay addresses T1, full-length recombinant human GRP78 (glucose-regulated protein 78), N-His tagged (human, UniProt P11021 19-654, limits assumed).
T1 construct: Immobilised on a Biacore NTA chip by Ni chelation plus amine coupling; also called His-tagged GRP78; human glucose-regulated protein 78; not shown: N-terminal His tag
Description: Biacore X SPR, 50 µM peptide over immobilised N-His GRP78; RU/MW normalised to L-peptide. The procedure:
The chip NTA and HBS-P buffer were obtained from GE Healthcare. Sensor chip NTA was prepared by combining Ni-ion chelation and covalent immobilization of N-His tagged GRP78 via amine-coupling with nitrilotriacetic acid on chip NTA (FIG. 6). To immobilize GRP78 protein on sensor chip for peptide-binding assay using Biacore, the methods based on Ni-ion chelation and amine coupling reaction were combined. Sensor chip NTA was prepared by chelation followed by covalent immobilization of N-His-tagged GRP78 via amine-coupling at the nitrilotriacetic acid group on chip NTA. The sensor chip NTA, HBS-P buffer and amine coupling kits were all obtained from GE Healthcare. First, the activation of chip surface using EDC and NHS reagents for amine coupling were according to the standard procedure from manufacturer's instruction. Additionally, one-minute pulse of NiCl₂ solution (500 μM) was used to attract His-tagged GRP78 to the surface of sensor chip and formed covalent bond subsequently in the condition of HBS-P buffer (pH 7.4). The resulting differences of RU were about 5,000˜6,000 RU. After de-activation by ethanolamine and washed with EDTA (3 mM), the prepared sensor chip was then applied to Biacore X for binding assay. The HBS-P buffer containing 1 mM Gly was used as running buffer for binding assay. Solution of 20 mM sodium hydroxide dissolved in running buffer was used to regenerate the chip surface by one-minute pulse.
The sensor chip thus prepared was applied to Biacore X for determining the binding between the peptides and GRP78. The HBS-P buffer containing 1 mM Gly was used as a running buffer. A solution of 20 mM sodium hydroxide dissolved in the running buffer was used to regenerate chip surface by 1-minute pulses.
As for B1, the Binding index was determined as 1.

Take B2: the Binding index was determined as 0.47.

Take B3: the Binding index worked out at 0.3.

B4: the Binding index was 0.77.

Consider B5, for which the Binding index was 0.35.

B6: the Binding index was 0.31.

Turning to B7, the Binding index is 0.21.

Take B8: the Binding index was 1.6.

As for B9, the Binding index stood at 1.15.

Another assay deals with full-length recombinant human GRP78 (glucose-regulated protein 78), N-His tagged (human) (UniProt P11021). Described as above.
full-length recombinant human GRP78 (glucose-regulated protein 78), N-His tagged (human), sequence (P11021 19-654 limits assumed): as above
As for B10, the Binding index was found to be 3.
